# Data: US7422862B2, “Methods for identifying modulators of apoptosis” (The Burnham Institute, priority 2001, dated 2008)
# Experiments:
# Bax [1] = target: T1, Bax (Homo sapiens, UniProt Q07812); test: Bax-induced apoptosis in transfected neuronal cells (DAPI staining); format: cell-based; parameters: expressed in transfected cells
# Procedure: (A) HEK293T cells were transfected with pcDNA3-HA-Bax together with plasmids encoding GFP, GFP-HN(N), or GFP-HN(M). Cell lysates were immunoprecipitated with polyclonal anti-GFP antibody. Immunoprecipitates (IP) or cell lysates were analyzed by immunoblotting using anti-HA or anti-GFP antibodies, respectively. (B) CSM14.1 neuronal cells were co-transfected with pcDNA3-HA-Bax together with plasmids encoding GFP, GFP-HN(N), or GFP-HN(M). Percent apoptosis was determined 48 h later by DAPI staining (mean±SD; n=3).
# Rat neuronal cell line CSM14.1 cells were transfected with various plasmids using the Lipofectamine reagent (Invitrogen). For transfection, 10×10^5 cells were plated per well using 6 well plates. Each well received 1 μg DNA plus […] of Lipofectamine. After 24 hours of transfection, the percentage of cell death was determined using 4′-6-diamidino-2-phenylindole (DAPI) staining. […] The data shown were obtained using the cytosolic form of Humanin; however, both cytosolic and mitochondrial forms of Humanin were tested and the results were the same.
# Apoptosis assays were performed as follows. Both floating and adherent cells (after trypsinization) were collected 48 hr after transfection, fixed, and stained using 4′,6-diamidine-2′-phenylindole dihydrochloride (DAPI) for assessing apoptosis based on nuclear fragmentation and chromatin condensation (Fields and Song, supra (1989)).
# Since Humanin co-immunoprecipitates with Bax but not Bak, the effects of Humanin over-expression on apoptosis induced by these members of the Bcl-2 family was compared. […] Similar results were obtained regardless of whether Humanin was fused to the N- or C-terminus of GFP, with both of these GFP fusion polypeptides localizing to the cytosol of cells.
# Bax [2] = target: T1, Bax; test: Co-immunoprecipitation of GFP-Humanin fusion polypeptides with Bax in transfected cells; format: binding; parameters: expressed in transfected cells; host or cells: HEK293T; key to Bax binding: +: ability to bind Bax was determined by co-immunoprecipitation assay; −: lacked Bax-binding activity; conditions: for co-immunoprecipitation with tagged Bax: 293T/HEK293T cells, anti-GFP immunoprecipitation
# From the text: Humanin (HN) cDNA was sub-cloned into a Green Fluorescence Protein (GFP) expression vector GFP-Cl at the Xhol/Hind III sites, producing a GFP-HN fusion polypeptide. GFP and GFP-HN were transfected into 293T cells with pcDNA3-HA-Bax. Cell lysates from these cells were immunoprecipitated with anti-GFP antibody and subsequently blotted with anti-HA antibody. The lysates were also blotted with ani-GFP antibody to confirm polypeptide expression. […] The data shown were obtained using the cytosolic form of Humanin; however, both cytosolic and mitochondrial forms of Humanin were tested and the results were the same.
# Co-immunoprecipitation assays were performed using Humanin polypeptides expressed as fusion polypeptides with the Green Fluorescent Protein (GFP) in human cells. Wild-type Humanin fused to GFP is referred to as GFP-HN and a mutant form of Humanin, where the cysteine at position 8 is replaced with proline, fused to GFP is referred to as GFP-C8P. […] Immunoblot analysis of lysates of the transfected cells confirmed production of all proteins. In addition, GFP-HN also coimmunoprecipitated endogenous Bax from cell lines, which contain relatively high levels of the Bax protein.
# Immunoblotting and immunoprecipitations were performed as follows. Immunoblotting was performed as described previously (Fields and Song, Nature 340:245-246 (1989)). For co-immunoprecipitations, cells were cultured in 50 uM […] Valine Alanine Asparate fluoromethyl-ketone (zVAD-fmk) to prevent apoptosis. Cells were suspended in lysis buffer (50 mM Tris-HCl, pH7.4; 150 mM NaCl; 20 mM EDTA; 50 mM NaF; 0.5% NP-40; 0.1 mM Na3VO4; 20 ug/ml Leupeptin; 20 ug/ml Aprotinin; 1 mM DTT; and 1 mM PMSF). Lysates (200 ul diluted in 1 ml final volume of lysis buffer) were cleared by incubation with 15 ul of protein G-Sepharose 4B (Zymed) and then incubated with 15 ul of polyclonal antibody and 15 ul of protein G at 4° C. overnight. Beads were then washed 4 times with 1.5 mls lysis buffer before boiling in Laemmli sample buffer and performing SDS-PAGE/immunoblotting.
# In order to explore whether a correlation exists between Humanin binding to Bax and Humanin-mediated suppression of apoptosis, Bax was co-expressed with various GFP-fusion polypeptides encoding wild-type, full-length Humanin or various truncation and site-specific mutants of Humanin (Table 1). Expression of all GFP-fusion polypeptides was confirmed by immunoblotting, and ability to bind Bax was determined by co-immunoprecipitation assay. Each Humanin mutant was scored for ability to suppress apoptosis induced by Bax over-expression by >50% using a 3:1 ratio of HN:Bax plasmid DNA. […] Based on these studies, an active region of the 24 amino-acid Humanin peptide, mapped to residues 7-17.
# T1 sequence (Q07812 whole entry, species assumed): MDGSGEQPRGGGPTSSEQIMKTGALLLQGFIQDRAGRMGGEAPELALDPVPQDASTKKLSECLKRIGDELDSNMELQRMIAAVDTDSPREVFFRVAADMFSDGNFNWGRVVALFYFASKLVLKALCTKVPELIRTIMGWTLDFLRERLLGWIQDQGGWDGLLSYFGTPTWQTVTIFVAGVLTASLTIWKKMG
"suppression of Bax-induced apoptosis, nuclear vs mitochondria-encoded form (Bax [1]; CSM14.1 cells, 48 h, DAPI)","suppression of apoptosis induced by Bax (Bax [1]; CSM14.1 or PC-3 cells, transient co-transfection)",co-immunoprecipitation with tagged Bax (Bax [2]; listed as GFP-HN(N)),"Bax binding (Bax [2]; GFP-fusion polypeptides, co-immunoprecipitation)",co-immunoprecipitation of endogenous Bax (Bax [2]; cell lines with relatively high levels of Bax),Substance,co-immunoprecipitation with tagged Bax (Bax [2]),"Bax-induced apoptosis (Bax [1]; CSM14.1 cells, 24 hours after transfection, DAPI)"
suppressed to comparable extents,about half,comparable amounts,+,coimmunoprecipitated,GFP-HN: Wild-type full-length Humanin fused to Green Fluorescent Protein,co-immunoprecipitated,
,,,,,"Humanin: 24 amino acid polypeptide, cytosolic form of human Humanin (SEQ ID NO:2); used as synthetic peptide or expressed fusion",co-immunoprecipitate,decreased
